Reference: IntAct's records for PubMed 16839886

B1: Guanine nucleotide-binding protein alpha-1 subunit (Saccharomyces cerevisiae), P08539 (parent)
chain: MGCTVSTQTIGDESDPFLQNKRANDVIEQSLQLEKQRDKNEIKLLLLGAGESGKSTVLKQLKLLHQGGFSHQERLQYAQVIWADAIQSMKILIIQARKLGIQLDCDDPINNKDLFACKRILLKAKALDYINASVAGGSDFLNDYVLKYSERYETRRRVQSTGRAKAAFDEDGNISNVKSDTDRDAETVTQNEDADRNNSSRINLQDICKDLNQEGDDQMFVRKTSREIQGQNRRNLIHEDIAKAIKQLWNNDKGIKQCFARSNEFQLEGSAAYYFDNIEKFASPNYVCTDEDILKGRIKTTGITETEFNIGSSKFKVLDAGGQRSERKKWIHCFEGITAVLFVLAMSEYDQMLFEDERVNRMHESIMLFDTLLNSKWFKDTPFILFLNKIDLFEEKVKSMPIRKYFPDYQGRVGDAEAGLKYFEKIFLSLNKTNKPIYVKRTCATDTQTMKFVLSAVTDLIIQQNLKKIGII
partner: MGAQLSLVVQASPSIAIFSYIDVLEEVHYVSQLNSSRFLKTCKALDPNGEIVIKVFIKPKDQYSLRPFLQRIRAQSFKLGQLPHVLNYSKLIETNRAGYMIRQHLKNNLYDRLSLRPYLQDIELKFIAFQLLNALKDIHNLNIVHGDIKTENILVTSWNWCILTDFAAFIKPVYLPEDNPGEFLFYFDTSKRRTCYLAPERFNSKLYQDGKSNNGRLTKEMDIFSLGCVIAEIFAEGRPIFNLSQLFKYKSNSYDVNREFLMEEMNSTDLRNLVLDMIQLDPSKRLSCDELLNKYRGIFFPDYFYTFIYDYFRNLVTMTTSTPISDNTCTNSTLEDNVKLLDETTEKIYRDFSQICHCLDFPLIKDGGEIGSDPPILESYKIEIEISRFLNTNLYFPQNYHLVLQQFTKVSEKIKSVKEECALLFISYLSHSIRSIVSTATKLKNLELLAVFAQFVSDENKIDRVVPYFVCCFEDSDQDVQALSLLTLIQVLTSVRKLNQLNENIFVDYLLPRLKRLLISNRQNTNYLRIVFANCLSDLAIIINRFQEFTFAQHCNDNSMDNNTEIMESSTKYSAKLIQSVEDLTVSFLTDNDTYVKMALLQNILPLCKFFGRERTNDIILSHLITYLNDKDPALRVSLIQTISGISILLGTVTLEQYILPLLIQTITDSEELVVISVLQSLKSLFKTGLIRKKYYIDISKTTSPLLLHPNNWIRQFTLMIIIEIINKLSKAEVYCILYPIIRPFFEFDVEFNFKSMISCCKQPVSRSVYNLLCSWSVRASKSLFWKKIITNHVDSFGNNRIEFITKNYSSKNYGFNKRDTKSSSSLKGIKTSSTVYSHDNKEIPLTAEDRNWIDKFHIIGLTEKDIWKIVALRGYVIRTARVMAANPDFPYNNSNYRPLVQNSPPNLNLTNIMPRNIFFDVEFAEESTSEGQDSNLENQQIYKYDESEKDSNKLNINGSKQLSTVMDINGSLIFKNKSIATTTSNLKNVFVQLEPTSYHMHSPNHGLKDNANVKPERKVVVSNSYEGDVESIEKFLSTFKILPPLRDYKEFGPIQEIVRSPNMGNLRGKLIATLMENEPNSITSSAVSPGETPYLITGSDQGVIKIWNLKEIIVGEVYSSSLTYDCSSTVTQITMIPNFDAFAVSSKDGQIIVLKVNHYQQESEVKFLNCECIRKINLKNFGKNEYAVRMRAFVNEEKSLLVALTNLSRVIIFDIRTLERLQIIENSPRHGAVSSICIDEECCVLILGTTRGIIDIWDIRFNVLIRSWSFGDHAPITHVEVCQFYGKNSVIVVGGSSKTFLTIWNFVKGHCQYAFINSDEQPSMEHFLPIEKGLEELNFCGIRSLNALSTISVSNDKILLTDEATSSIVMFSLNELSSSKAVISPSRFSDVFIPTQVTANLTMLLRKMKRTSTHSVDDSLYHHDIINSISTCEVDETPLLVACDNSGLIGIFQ

Variants of: B1
Settings: with vps15_yeast VPS15, P22219

| effect of a mutation on the interaction | Variant |
| --- | --- |
| decreasing interaction | Q323L |
